The values below are quoted from earlier work in article PMC4456024.

pKd: −log10 of the molar value.

The data set concerns the target cTnI147-163 (Homo sapiens). Put plainly: NMR titration.

cTnC (cNTnC) 1-89 (from UniProt P63316): the pKd was 3.82.

The term pKd denotes −log10 of the Kd, conventionally taken in molar units.
